According to patent US20210030857A1 (NGM BIOPHARMACEUTICALS, published 2021):

Legend:
[1] = target: T1, cynomolgus beta klotho expressed on cells (cynomolgus monkey (Macaca fascicularis), UniProt Q86Z14 1-1044 (human entry)); experiment: FACS on transfected Expi293 cells, antibody 1 µg/ml, labelled anti-human Fc
T1 construct: also called Cynomolgus KLB
T1 chain: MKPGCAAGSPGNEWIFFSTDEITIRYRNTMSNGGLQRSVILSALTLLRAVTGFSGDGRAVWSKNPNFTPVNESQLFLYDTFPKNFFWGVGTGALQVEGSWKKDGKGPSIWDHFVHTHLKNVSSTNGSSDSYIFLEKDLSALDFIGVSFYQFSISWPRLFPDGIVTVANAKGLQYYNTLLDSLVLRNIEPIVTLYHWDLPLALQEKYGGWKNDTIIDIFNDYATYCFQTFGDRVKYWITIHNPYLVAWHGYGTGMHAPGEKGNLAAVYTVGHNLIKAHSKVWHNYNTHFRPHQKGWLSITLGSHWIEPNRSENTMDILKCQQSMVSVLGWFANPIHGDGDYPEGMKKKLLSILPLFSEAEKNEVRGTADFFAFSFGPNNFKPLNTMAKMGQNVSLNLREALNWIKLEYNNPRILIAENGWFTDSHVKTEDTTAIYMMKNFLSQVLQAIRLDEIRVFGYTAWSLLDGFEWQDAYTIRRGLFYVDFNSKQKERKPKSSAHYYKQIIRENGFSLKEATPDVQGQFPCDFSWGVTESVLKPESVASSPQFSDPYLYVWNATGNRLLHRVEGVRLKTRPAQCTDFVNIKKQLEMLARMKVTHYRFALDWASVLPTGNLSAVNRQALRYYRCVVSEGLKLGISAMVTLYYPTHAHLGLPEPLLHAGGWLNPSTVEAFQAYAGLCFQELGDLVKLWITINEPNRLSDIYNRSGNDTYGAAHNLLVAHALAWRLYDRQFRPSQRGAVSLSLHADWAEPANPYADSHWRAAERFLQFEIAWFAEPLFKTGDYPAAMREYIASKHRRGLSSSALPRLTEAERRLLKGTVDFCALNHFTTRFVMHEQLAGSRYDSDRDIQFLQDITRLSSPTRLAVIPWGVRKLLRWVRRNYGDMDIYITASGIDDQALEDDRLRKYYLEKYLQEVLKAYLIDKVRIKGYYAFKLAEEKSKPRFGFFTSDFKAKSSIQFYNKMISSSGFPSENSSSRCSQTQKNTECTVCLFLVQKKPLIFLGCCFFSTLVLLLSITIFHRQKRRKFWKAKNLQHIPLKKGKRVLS
Experimental: (§1) Studies were performed in order to localize the binding site on human KLB of anti-beta klotho antibodies in the 5H23 epitope bin, including 5H23 as described in Example 3, with sequences shown in Tables 1-10 and FIGS. 1-3, and human anti-beta klotho antibodies in the 5H23 epitope bin, such as humanized 5H23 antibodies (e.g., VH SEQ ID NO: 271 and VL SEQ ID NO: 276). For example, FACS-based binding assays for domain mapping were performed on Expi293 cells (Life Technologies, A14635) that were transiently transfected with plasmids encoding variants of KLB: human, mouse, cynomolgus, a chimeric version in which the KL1 domain sequence of mouse KLB (M1-F506) replaces the KL1 domain of human KLB (M1-F508) to create mouse-human KLB (SEQ ID NO: 376), and a second chimera in which the human KL1 sequence (M1-F508) replaces the KL1 domain of mouse KLB (M1-F506) to create human-mouse KLB (SEQ ID NO: 374). Additionally, the expression vector pYD7 harboring no KLB sequence was transfected as a negative control.
(§2) In some studies, binding of a purified sample of a humanized 5H23 antibody (e.g., VH SEQ ID NO: 271 and VL SEQ ID NO: 276) to KLB variants was determined by FACS analysis. […] After washing with PBS/1% BSA/0.1% azide, transfected cells were then co-incubated with labeled anti-human Fc (Jackson lmmunoresearch) for 30 minutes at 4° C. After washing with PBS/1% BSA/0.1% azide, cells were acquired on flow cytometer (FACS Calibur) and analyzed by cytometric software (FlowJo). To display the resulting data, graphs plotting the number of cells as a function of fluorescence intensity were generated, and the median fluorescence intensity (MFI) was determined for each sample as shown in Table 30.

[2] = target: T2, human beta klotho expressed on cells (human, UniProt Q86Z14 1-1044); experiment: as above
T2 construct: also called HuKLB overexpressing cells; Human KLB
T2 sequence: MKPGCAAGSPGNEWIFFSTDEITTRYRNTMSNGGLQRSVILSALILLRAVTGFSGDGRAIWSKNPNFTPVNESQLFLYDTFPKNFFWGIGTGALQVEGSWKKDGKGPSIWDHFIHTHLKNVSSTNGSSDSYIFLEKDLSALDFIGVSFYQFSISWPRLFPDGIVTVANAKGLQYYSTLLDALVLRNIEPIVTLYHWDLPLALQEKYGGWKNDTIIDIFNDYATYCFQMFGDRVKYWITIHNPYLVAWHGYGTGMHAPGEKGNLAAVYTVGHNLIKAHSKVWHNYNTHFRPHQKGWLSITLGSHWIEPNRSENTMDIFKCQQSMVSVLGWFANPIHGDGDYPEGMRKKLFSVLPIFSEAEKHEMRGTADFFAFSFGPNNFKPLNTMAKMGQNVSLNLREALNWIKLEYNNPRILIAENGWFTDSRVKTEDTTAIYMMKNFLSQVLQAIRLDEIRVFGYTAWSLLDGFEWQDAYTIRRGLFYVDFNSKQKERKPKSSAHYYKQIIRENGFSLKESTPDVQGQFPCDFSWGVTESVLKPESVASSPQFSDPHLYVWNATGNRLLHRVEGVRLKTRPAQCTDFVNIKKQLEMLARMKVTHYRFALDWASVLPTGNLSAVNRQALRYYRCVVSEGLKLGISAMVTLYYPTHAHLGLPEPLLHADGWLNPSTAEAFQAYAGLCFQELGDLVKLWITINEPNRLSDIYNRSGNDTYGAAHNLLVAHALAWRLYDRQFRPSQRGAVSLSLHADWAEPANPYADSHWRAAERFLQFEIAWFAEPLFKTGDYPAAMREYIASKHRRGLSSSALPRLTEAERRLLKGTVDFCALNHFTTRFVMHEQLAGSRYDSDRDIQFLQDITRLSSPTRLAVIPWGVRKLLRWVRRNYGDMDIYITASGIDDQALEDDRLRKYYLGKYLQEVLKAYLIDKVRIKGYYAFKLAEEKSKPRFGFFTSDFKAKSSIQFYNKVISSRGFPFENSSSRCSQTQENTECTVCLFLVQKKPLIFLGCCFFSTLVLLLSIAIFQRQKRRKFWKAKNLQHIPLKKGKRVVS
Experimental: as §1, §2

Binder | Mean Fluorescence intensity [1] [MFI] | Mean Fluorescence intensity [2] [MFI]
negative control antibody, anti-keyhole limpet hemocyanin (KLH) antibody (antibody, human IgG1, kappa, V domains shown, also called Neg; Control; anti-KLH antibody) VH: not shown VL: DIQMTQSPSSLSASVGDRVTITCRASQGIRNDLGWYQQKPGKAPKRLIYAASSLQSGVPSRFSGSGSGTEFTLTISSLQPEDFATYYCLQHNSYPLTFGGGTKVEIKR | 9.26 | 6.2
humanized 5H23 antibody (VH SEQ ID NO: 271 and VL SEQ ID NO: 276) (antibody, V domains shown, also called h5H23; h5H23 (Prep 1)) VH: QVQLQQSGAEVKKPGASVKVSCKASGYTFTSYDINWVRQAPGQGLEWIGWIYPGDGSTKYNEKFKGKATITRDTSASTAYMELSSLRSEDTAVYFCARSDYYGSRSFAYWGQGTLVTVSS VL: DIVMTQSPDSLAVSLGERATINCRASKSVSTSGYVYMHWYQQKPGQPPKLLIYLASYLESGVPDRFSGSGSGTDFTLTISSVQAEDVAVYYCQHSRDLTFPFGGGTKLEIK | 1910 | 865
